Source: patent US20220204609A1 (SHANDONG BOAN BIOTECHNOLOGY, published 2022)
Numbering of substitutions follows the chain as printed. Like-named read-outs stand apart in the source and are kept apart here. Each block holds one binder with its values, some of them ahead of it.

Legend:
Claudin18.2 on cells [1] = target: T1, Claudin18.2 on cells (human, UniProt P56856-2 1-261); assay: flow cytometry on 293T-Claudin18.2 cells, antibody at 1.5 µg/mL
T1 construct: whole, on cells; the cell line of each result is named under assay or readout
Method: (§1) Each candidate antibody was serially diluted with FACS buffer (sterile PBS, 0.2% BSA), and added to the 96-well round-bottom plate at 50 μL/well before an incubation at 4° C. for 1 h. The supernatant was discarded after centrifugation at 2000 rpm for 3 min.

Claudin18.2 on cells [2] = target: T1, Claudin18.2 on cells; assay: as above; remark: listed apart in the source
Method: as §1

Claudin18.2 on cells [3] = target: T1, Claudin18.2 on cells; assay: flow cytometry on NUGC4 cells, antibody at 3 µg/mL
Method: as §1

Claudin18.2 on cells [4] = target: T1, Claudin18.2 on cells; assay: cell-based or functional assay
Claudin18.2 on cells [5] = target: T1, Claudin18.2 on cells; assay: flow cytometry on NUGC4 cells, antibody at 0.75 µg/mL
Method: as §1

Claudin18.2 on cells [6] = target: T1, Claudin18.2 on cells; assay: flow cytometry on NUGC4 cells, antibody at 3 µg/mL; remark: listed apart in the source
Method: as §1

Claudin18.2 on cells [7] = target: T1, Claudin18.2 on cells; assay: flow cytometry on 293T-Claudin18.2 cells, antibody at 3 µg/mL
Method: as §1

Claudin18.2 on cells [8] = target: T1, Claudin18.2 on cells; assay: flow cytometry on NUGC4 cells, antibody at 1.5 µg/mL
Method: as §1

Claudin18.2 on cells [9] = target: T1, Claudin18.2 on cells; assay: flow cytometry on 293T-Claudin18.2 cells, antibody at 0.75 µg/mL
Method: as §1

Claudin18.2 on cells [10] = target: T1, Claudin18.2 on cells; assay: as above; remark: listed apart in the source
Method: as §1

Claudin18.2 on cells [11] = target: T1, Claudin18.2 on cells; assay: cell-based or functional assay; remark: listed apart in the source
Claudin18.2 on cells [12] = target: T1, Claudin18.2 on cells; assay: flow cytometry on 293T-Claudin18.2 cells, antibody at 0.375 µg/mL
Method: as §1

Claudin18.2 on cells [13] = target: T1, Claudin18.2 on cells; assay: cell-based or functional assay; remark: listed apart in the source
Claudin18.2 on cells [14] = target: T1, Claudin18.2 on cells; assay: flow cytometry on NUGC4 cells, antibody at 0.75 µg/mL; remark: listed apart in the source
Method: as §1

Claudin18.2 on cells [15] = target: T1, Claudin18.2 on cells; assay: flow cytometry on 293T-Claudin18.2 cells, antibody at 0.375 µg/mL; remark: listed apart in the source
Method: as §1

Claudin18.2 on cells [16] = target: T1, Claudin18.2 on cells; assay: cell-based or functional assay; remark: listed apart in the source
Claudin18.2 on cells [17] = target: T1, Claudin18.2 on cells; assay: flow cytometry on NUGC4 cells, antibody at 1.5 µg/mL; remark: listed apart in the source
Method: as §1

Claudin18.1 on cells [18] = target: T2, Claudin18.1 on cells (human, UniProt P56856 1-261); assay: flow cytometry on 293T-Claudin18.1 cells, antibody at 0.75 µg/mL
T2 construct: whole, on cells
Method: as §1

Claudin18.1 on cells [19] = target: T2, Claudin18.1 on cells; assay: flow cytometry on 293T-Claudin18.1 cells, antibody at 0.375 µg/mL
Method: as §1

Claudin18.1 on cells [20] = target: T2, Claudin18.1 on cells; assay: flow cytometry on 293T-Claudin18.1 cells, antibody at 3 µg/mL
Method: as §1

Claudin18.1 on cells [21] = target: T2, Claudin18.1 on cells; assay: flow cytometry on 293T-Claudin18.1 cells, antibody at 1.5 µg/mL
Method: as §1

- mean fluorescence intensity (Claudin18.2 on cells [1]): 878000
- mean fluorescence intensity (Claudin18.2 on cells [2]): 849000
- mean fluorescence intensity (Claudin18.2 on cells [3]): 131000
- ADCC EC50 (µg/mL), NUGC4 target cells, Jurkat reporter effector cells, Bio-Glo (Claudin18.2 on cells [4]): 2.15 µg/mL
- mean fluorescence intensity (Claudin18.2 on cells [5]): 55400
- mean fluorescence intensity (Claudin18.2 on cells [6]): 117000
- mean fluorescence intensity (Claudin18.2 on cells [7]): 902000
- mean fluorescence intensity (Claudin18.2 on cells [8]): 93500
- mean fluorescence intensity (Claudin18.2 on cells [9]): 650000
- mean fluorescence intensity (Claudin18.2 on cells [10]): 689000
- ADCC EC50 (µg/mL), NUGC4 target cells, Jurkat reporter effector cells, Bio-Glo (Claudin18.2 on cells [11]): 2.56 µg/mL
- mean fluorescence intensity (Claudin18.2 on cells [12]): 407000
- ADCC inhibition rate, %, antibody 0.1 µg/mL, 293T-Claudin18.2 target cells, PBMC effectors, LDH (Claudin18.2 on cells [13]): 20.8%
- ADCC inhibition rate, %, antibody 1 µg/mL, 293T-Claudin18.2 target cells, PBMC effectors, LDH (Claudin18.2 on cells [13]): 41.4%
- ADCC inhibition rate, %, antibody 10 µg/mL, 293T-Claudin18.2 target cells, PBMC effectors, LDH (Claudin18.2 on cells [13]): 60.6%
- mean fluorescence intensity (Claudin18.2 on cells [14]): 69600
- mean fluorescence intensity (Claudin18.2 on cells [15]): 498000
- ADCC inhibition rate, %, antibody 0.5 µg/mL, 293T-Claudin18.2 target cells, PBMC effectors, LDH (Claudin18.2 on cells [16]): 18%
- ADCC inhibition rate, %, antibody 5 µg/mL, 293T-Claudin18.2 target cells, PBMC effectors, LDH (Claudin18.2 on cells [16]): 45%
- ADCC inhibition rate, %, antibody 50 µg/mL, 293T-Claudin18.2 target cells, PBMC effectors, LDH (Claudin18.2 on cells [16]): 49%
- mean fluorescence intensity (Claudin18.2 on cells [17]): 97100
B1: IMAB362 (antibody, human IgG1, kappa, V domains shown)
VH: QVQLQQPGAELVRPGASVKLSCKASGYTFTSYWINWVKQRPGQGLEWIGNIYPSDSYTNYNQKFKDKATLTVDKSSSTAYMQLSSPTSEDSAVYYCTRSWRGNSFDYWGQGTTLTVSS
VL: DIVMTQSPSSLTVTAGEKVTMSCKSSQSLLNSGNQKNYLTWYQQKPGQPPKLLIYWASTRESGVPDRFTGSGSGTDFTLTISSVQAEDLAVYYCQNDYSYPFTFGSGTKLEIKR

- mean fluorescence intensity (Claudin18.2 on cells [2]): 1.05e+06
- mean fluorescence intensity (Claudin18.2 on cells [3]): 113000
- mean fluorescence intensity (Claudin18.2 on cells [7]): 1.23e+06
- mean fluorescence intensity (Claudin18.1 on cells [18]): 141000
- mean fluorescence intensity (Claudin18.2 on cells [10]): 774000
- mean fluorescence intensity (Claudin18.1 on cells [19]): 96700
- ADCC EC50 (µg/mL), NUGC4 target cells, Jurkat reporter effector cells, Bio-Glo (Claudin18.2 on cells [11]): 15.7 µg/mL
- mean fluorescence intensity (Claudin18.1 on cells [20]): 194000
- ADCC inhibition rate, %, antibody 0.1 µg/mL, 293T-Claudin18.2 target cells, PBMC effectors, LDH (Claudin18.2 on cells [13]): 25.6%
- ADCC inhibition rate, %, antibody 1 µg/mL, 293T-Claudin18.2 target cells, PBMC effectors, LDH (Claudin18.2 on cells [13]): 61.4%
- ADCC inhibition rate, %, antibody 10 µg/mL, 293T-Claudin18.2 target cells, PBMC effectors, LDH (Claudin18.2 on cells [13]): 61.2%
- mean fluorescence intensity (Claudin18.1 on cells [21]): 163000
- mean fluorescence intensity (Claudin18.2 on cells [14]): 24400
- mean fluorescence intensity (Claudin18.2 on cells [15]): 495000
- mean fluorescence intensity (Claudin18.2 on cells [17]): 58100
B2: CLD389-CA802-IgG1 (antibody, V domains shown)
VH: QVQLVESGGGVVQPGRSLRLSCAASGFTFSSYAMHWVRQVPGKGLEWVAIISYDGSIKYYADSVKGQFTISRDNSKNTLSLQMNSLRPEDTAVYYCARDPTMVRGVRGMDVWGQGTTVTVSS
VL: DIQMTQSPSSLSASVGDRVTITCRASQGIRNDLGWYQQKPGKAPKLLIYAASSLQSGVPSRFSGSGSGTDFTLTISSLQPEDFATYYCLQDYNYPLTFGGGTKLEIKR
notes: Complete IgG1 made in HEK293 cells

- mean fluorescence intensity (Claudin18.2 on cells [2]): 578000
- mean fluorescence intensity (Claudin18.2 on cells [5]): 9230
- mean fluorescence intensity (Claudin18.2 on cells [6]): 18400
- mean fluorescence intensity (Claudin18.2 on cells [7]): 742000
- mean fluorescence intensity (Claudin18.2 on cells [8]): 12000
- mean fluorescence intensity (Claudin18.2 on cells [10]): 365000
- ADCC inhibition rate, %, antibody 0.1 µg/mL, 293T-Claudin18.2 target cells, PBMC effectors, LDH (Claudin18.2 on cells [13]): -0.212%
- ADCC inhibition rate, %, antibody 1 µg/mL, 293T-Claudin18.2 target cells, PBMC effectors, LDH (Claudin18.2 on cells [13]): 12.3%
- ADCC inhibition rate, %, antibody 10 µg/mL, 293T-Claudin18.2 target cells, PBMC effectors, LDH (Claudin18.2 on cells [13]): 39.9%
- mean fluorescence intensity (Claudin18.2 on cells [15]): 196000
B3: CLD389-CA852-IgG1 (antibody, V domains shown)
VH: B2 VH with V40A, I50V, I57K, Q67R, S80Y, P88A
VL: B2 VL with D1E, Q3V, S10T, V15I, L104V
notes: as for B2

- mean fluorescence intensity (Claudin18.2 on cells [2]): 1.06e+06
- mean fluorescence intensity (Claudin18.2 on cells [3]): 158000
- mean fluorescence intensity (Claudin18.2 on cells [7]): 1.24e+06
- mean fluorescence intensity (Claudin18.2 on cells [10]): 776000
- ADCC EC50 (µg/mL), NUGC4 target cells, Jurkat reporter effector cells, Bio-Glo (Claudin18.2 on cells [11]): 0.81 µg/mL
- ADCC inhibition rate, %, antibody 0.1 µg/mL, 293T-Claudin18.2 target cells, PBMC effectors, LDH (Claudin18.2 on cells [13]): 7.53%
- ADCC inhibition rate, %, antibody 1 µg/mL, 293T-Claudin18.2 target cells, PBMC effectors, LDH (Claudin18.2 on cells [13]): 16.1%
- ADCC inhibition rate, %, antibody 10 µg/mL, 293T-Claudin18.2 target cells, PBMC effectors, LDH (Claudin18.2 on cells [13]): 41%
- mean fluorescence intensity (Claudin18.2 on cells [14]): 40000
- mean fluorescence intensity (Claudin18.2 on cells [15]): 488000
- mean fluorescence intensity (Claudin18.2 on cells [17]): 78300
B4: CLD389-279-IgG1 (antibody, V domains shown)
VH: EVQLVQSGGGVVQPGRSLRLSCAASGFTFSNYAMHWVRQAPGKGLEWVAVISYDGSNKYYADSVKGRFTISRDNSKNTLYLQMNSLRAEDTAVYYCARELRFFDWLLGRAFDIWGQGTMVTVSS
VL: B2 VL with D1E, Q3V, S9P, L96W, G100Q
notes: Complete IgG1 made in HEK293 cells; also called C279; CLD389-C279

- mean fluorescence intensity (Claudin18.2 on cells [2]): 855000
- mean fluorescence intensity (Claudin18.2 on cells [3]): 32400
- ADCC EC50 (µg/mL), NUGC4 target cells, Jurkat reporter effector cells, Bio-Glo (Claudin18.2 on cells [4]): 17.3 µg/mL
- mean fluorescence intensity (Claudin18.2 on cells [7]): 1.09e+06
- mean fluorescence intensity (Claudin18.1 on cells [18]): 18100
- mean fluorescence intensity (Claudin18.2 on cells [10]): 583000
- mean fluorescence intensity (Claudin18.1 on cells [19]): 21500
- mean fluorescence intensity (Claudin18.1 on cells [20]): 11000
- ADCC inhibition rate, %, antibody 0.1 µg/mL, 293T-Claudin18.2 target cells, PBMC effectors, LDH (Claudin18.2 on cells [13]): 15.6%
- ADCC inhibition rate, %, antibody 1 µg/mL, 293T-Claudin18.2 target cells, PBMC effectors, LDH (Claudin18.2 on cells [13]): 27.2%
- ADCC inhibition rate, %, antibody 10 µg/mL, 293T-Claudin18.2 target cells, PBMC effectors, LDH (Claudin18.2 on cells [13]): 58.5%
- mean fluorescence intensity (Claudin18.1 on cells [21]): 37900
- mean fluorescence intensity (Claudin18.2 on cells [14]): 11100
- mean fluorescence intensity (Claudin18.2 on cells [15]): 308000
- mean fluorescence intensity (Claudin18.2 on cells [17]): 13200
B5: CLDQ1-CA841-IgG1 (antibody, V domains shown)
VH: QVQLVQSGAEVKKPGSSVKVSCKASGGTFSSYAISWVRQAPGQGLEWMGRIIPILGIANYAQKFQGRVTVTADKSTSTAYMELSSLRSEDTAVYYCARERDNWDPYYYYYGMDVWGQGTTVTVSS
VL: DIQMTQSPSTLSASVGDRVTITCRASQSINSWLAWYQQKPGKAPKLLIYKASSLESGVPSRFSGSGSGTEFTLTISSLQPDDFATYYCQQYNSFPLTFGGGTKVEIKR
notes: as for B2
